Earlier results on one substance are cited in patent US20050118241A1, “Platform for transdermal formulations (ptf)” (priority 2002, published 2005).

For this series the following is noted: extensively degraded in liver, kidney and plasma.

In the case of glucagon, the half-life is 3 to 6 min.

Broadly, the half-life is the time in which the quantity being followed falls by half.
